Data set [1] deals with T1, Cystathionine γ-lyase (TgCGL) (Toxoplasma gondii, UniProt A0A125YN40, N360S).
T1 construct: gene TGME49_312930; full-length, N-terminal His6 tag
Description: UV-visible absorption titration at […] and […] nm; also substrate inhibition (Ki […]). The data set is classed as binding.

Data set [2] deals with T2, Cystathionine γ-lyase (TgCGL) (Toxoplasma gondii, UniProt A0A125YN40).
T2 construct: gene TGME49_312930; full-length, N-terminal His6 tag
T2 sequence (A0A125YN40 1-417): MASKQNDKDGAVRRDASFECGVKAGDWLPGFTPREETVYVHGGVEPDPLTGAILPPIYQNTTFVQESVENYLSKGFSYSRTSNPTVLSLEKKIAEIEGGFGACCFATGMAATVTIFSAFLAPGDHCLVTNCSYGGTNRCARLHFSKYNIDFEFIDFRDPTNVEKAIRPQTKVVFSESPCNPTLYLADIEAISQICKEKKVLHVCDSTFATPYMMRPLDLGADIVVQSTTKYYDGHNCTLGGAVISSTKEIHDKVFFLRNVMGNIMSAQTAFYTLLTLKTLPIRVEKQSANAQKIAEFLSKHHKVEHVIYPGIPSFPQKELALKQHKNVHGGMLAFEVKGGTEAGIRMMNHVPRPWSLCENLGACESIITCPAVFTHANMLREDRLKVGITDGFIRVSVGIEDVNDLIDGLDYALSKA
The data set is described as above. The data set is classed as binding.

Data set [3] has as its target T3, Cystathionine γ-lyase (TgCGL) (Toxoplasma gondii, UniProt A0A125YN40, S77E).
T3 construct: gene TGME49_312930; full-length, N-terminal His6 tag
T3 sequence (A0A125YN40 1-417 S77E): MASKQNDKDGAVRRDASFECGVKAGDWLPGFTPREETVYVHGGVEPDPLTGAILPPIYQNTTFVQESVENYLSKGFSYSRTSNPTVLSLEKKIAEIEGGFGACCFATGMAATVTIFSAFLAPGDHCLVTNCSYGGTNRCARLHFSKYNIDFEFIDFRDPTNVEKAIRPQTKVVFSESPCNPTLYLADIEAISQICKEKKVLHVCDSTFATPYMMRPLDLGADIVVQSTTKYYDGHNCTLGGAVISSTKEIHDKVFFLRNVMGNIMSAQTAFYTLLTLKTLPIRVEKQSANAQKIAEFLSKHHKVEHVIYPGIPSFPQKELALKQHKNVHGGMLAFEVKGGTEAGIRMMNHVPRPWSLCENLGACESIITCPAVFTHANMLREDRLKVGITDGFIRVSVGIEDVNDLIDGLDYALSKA
Description: UV-visible absorption titration at […] and […] nm (no hydrolysis detected). The data set is classed as binding.

Data set [4] concerns the target cystathionine γ-lyase from Toxoplasma gondii (Toxoplasma gondii). Nature of the data set: SEC; analytical gel filtration on Superdex 200 HR 10/300 GL; 50 mM sodium phosphate buffer pH 8.5, 150 mM NaCl, 0.1 mM DTT; mass from a calibration curve.
Data set [5] deals with N[C@@H](CSCSC[C@H](N)C(=O)O)C(=O)O. Nature of the data set: steady-state kinetics of the purified enzyme, LDH-coupled assay (Km). In kind it is biochemical, Toxoplasma gondii. The conditions noted are these: PLP; pH 9.0; 37.0 °C.
Data set [6] relates to N[C@@H](CCSC[C@H](N)C(=O)O)C(=O)O. Nature of the data set: purified protein. The data set is classed as biochemical, Toxoplasma gondii. The conditions noted are these: PLP active site; external aldimine with PLP (modelled); pH 9.0; 37.0 °C.
For data set [7] the test system is unchanged. Nature of the data set: steady-state kinetics of the purified enzyme, DTNB assay (Km). The data set is classed as biochemical, Toxoplasma gondii. As to conditions: PLP; pH 9.0; 37.0 °C.
For data set [8], the target named is T4, Cystathionine γ-lyase (TgCGL) (Toxoplasma gondii, UniProt A0A125YN40).
T4 construct: gene TGME49_312930; full-length, N-terminal His6 tag (apo-protein)
Nature of the data set: intrinsic fluorescence titration of apo-TgCGL (excitation […] nm, emission […] nm). The data set is classed as binding.

Substrate in data set [9]: N[C@@H](CCSC[C@H](N)C(=O)O)C(=O)O
Nature of the data set: purified protein. As to conditions: PLP active site; external aldimine with PLP (modelled); pH 9.0; 37.0 °C.

Substrate in data set [10]: N[C@@H](CSCSC[C@H](N)C(=O)O)C(=O)O
Nature of the data set: steady-state kinetics of the purified enzyme, LDH-coupled assay (Km). In kind it is biochemical, Toxoplasma gondii. The conditions noted are these: PLP; pH 9.0; 37.0 °C. This is another data set of the same source.

Substrate in data set [11]: NCCSC[C@H](N)C(=O)O
Nature of the data set: steady-state kinetics of the purified enzyme, α,β-elimination (Km). In kind it is biochemical, Toxoplasma gondii. The conditions noted are these: PLP.

For `N[C@@H](CS)C(=O)O` [L-cysteine], the Kd is given as 335 ± 15 (335 nm); 331 ± 20 (421 nm) µM in data set [1], 306 ± 41 (335 nm); 273 ± 52 (421 nm) µM in [2] and 677 ± 180 (335 nm); 874 ± 87 (421 nm) µM in data set [3].
As usually defined, the stoichiometry N is the number of molecules, sites or subunits per partner or assembly. The molecule “cystathionine γ-lyase from Toxoplasma gondii (enzyme)” came in with a stoichiometry N in data set [4] of 4.
One may read the Km as the substrate concentration at which the rate is half of its maximum. The kcat is the maximal rate divided by the concentration of active sites. What is called kcat/Km is the turnover number divided by the Michaelis constant. For “Cystathionine γ-lyase (TgCGL) (Toxoplasma gondii ME49; N360S)”, in [5], the Michaelis-Menten constant (Km) turned out to be 0.86 ± 0.03 mM, the kcat came out at 0.19 ± 0.01 s⁻¹ and the kcat/Km was 220 ± 20 M⁻¹ s⁻¹. Besides, in [6], the Km worked out at 1.1 ± 0.1 mM, the turnover number (kcat) was 0.08 ± 0.01 s⁻¹ and the kcat/Km is 73 ± 16 M⁻¹ s⁻¹.
As to “Cystathionine γ-lyase (TgCGL) (Toxoplasma gondii ME49; S77A)”, in [7], the Km is 2.4 ± 0.3 mM, the kcat worked out at 0.7 ± 0.1 s⁻¹ and the kcat/Km is 290 ± 80 M⁻¹ s⁻¹.
In data set [8], `Cc1ncc(COP(=O)(O)O)c(C=O)c1O` [PLP] had a Kd of 170 ± 40 nM.

B1: Cystathionine γ-lyase (TgCGL) (Toxoplasma gondii ME49) (protein)
chain: MASKQNDKDGAVRRDASFECGVKAGDWLPGFTPREETVYVHGGVEPDPLTGAILPPIYQNTTFVQESVENYLSKGFSYSRTSNPTVLSLEKKIAEIEGGFGACCFATGMAATVTIFSAFLAPGDHCLVTNCSYGGTNRCARLHFSKYNIDFEFIDFRDPTNVEKAIRPQTKVVFSESPCNPTLYLADIEAISQICKEKKVLHVCDSTFATPYMMRPLDLGADIVVQSTTKYYDGHNCTLGGAVISSTKEIHDKVFFLRNVMGNIMSAQTAFYTLLTLKTLPIRVEKQSANAQKIAEFLSKHHKVEHVIYPGIPSFPQKELALKQHKNVHGGMLAFEVKGGTEAGIRMMNHVPRPWSLCENLGACESIITCPAVFTHANMLREDRLKVGITDGFIRVSVGIEDVNDLIDGLDYALSKA
notes: full-length, N-terminal His6 tag
Take B1: the results for the Michaelis constant (Km) in data set [9], in data set [10] and in data set [11] were 0.9 ± 0.1 mM, 0.51 ± 0.01 mM and 1.3 ± 0.1 mM, respectively. The kcat in [10] amounted to 0.24 ± 0.01 s⁻¹. Further, the kcat/Km in data set [10] was found to be 470 ± 30 M⁻¹ s⁻¹.

For the origin of these results see publication PMC6073527, “Functional Characterization and Structure-Guided Mutational Analysis of the Transsulfuration Enzyme Cystathionine γ-Lyase from Toxoplasma gondii” (International Journal of Molecular Sciences, 2018).
